This passage reports Kd results from patent US20180355064A1 (published 2018).

The target in assay [1] is cynomolgus monkey CD3 epsilon 1-26_Fc fusion protein. The assay is described as follows: SPR.
Assay [2] deals with human CD3 epsilon 1-26_Fc fusion protein. Put plainly: SPR.

B1: chimeric 9G7 antibody (antibody, V domains shown)
VH: QVTLKESGPGILQPSQTLSLTCSFSGLSLSTSGKGVGWIRQPSGKGLEWLAHIWWDDDKRYNPALKSRLTISKDTSSNQVFLKIASVDTADTATYYCARIELGRSYVMDYWGQGTTVTVSS
VL: DIVMTQSHKFMSTSVGDRVSISCKASQDVITSVAWFQQKPGQSPKLLIYSASYRYTGVPDRFTGSGSGTDFTFTISSVQAEDLAVYYCQQHYTIPLTFGAGTKLELKR
What is called Kd is a measure of binding affinity in units of concentration. On to B1, for which the Kd stood at 1 nM in assay [1] and 0.4 nM in assay [2].

B2: humanized 9G7 best-framework antibody (antibody, V domains shown)
VH: EVQLVESGGGLVQPGGSLRLSCAFSGLSLSTSGKGVGWIRQAPGKGLEWLAHIWWDDDKRYNPALKSRLTISKDTSKNTVYLQMNSLRAEDTAVYYCARIELGRSYVMDYWGQGTLVTVSS
VL: DIQMTQSPSSLSASVGDRVTITCRASQDVITSVAWFQQKPGKAPKLLIYSASYRYTGVPSRFSGSGSGTDFTLTISSLQPEDFATYYCQQHYTIPLTFGQGTKVEIKR
Consider B2, for which the Kd in assay [1] was 1 nM; in assay [2], 0.4 nM.

B3: humanized 9G7 best-fit antibody (antibody, V domains shown)
VH: QVTLKESGPTLVKPTQTLTLTCTFSGLSLSTSGKGVGWIRQPPGKALEWLAHIWWDDDKRYNPALKSRLTITKDTSKNQVVLTMTNMDPVDTATYYCARIELGRSYVMDYWGQGTLVTVSS
VL: DIQMTQSPSSLSASVGDRVTITCQASQDVITSVAWYQQKPGKAPKLLIYSASYRYTGVPSRFSGSGSGTDFTFTISSLQPEDIATYYCQQHYTIPLTFGQGTKLEIKR
As to B3, the results for the equilibrium dissociation constant (Kd) in assay [1] and in assay [2] were 3.2 nM and 0.5 nM, respectively.
